Assay results as given in the nanobody polyreactivity screen of Harvey et al. (2022).

Test: yeast display, Sf9 membrane polyspecificity reagent, FACS + sequencing; frameworks hold sequencing errors
Outline: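 Nanobodies came from a synthetic yeast display library in Saccharomyces cerevisiae BJ5465, induced with galactose for 36–48 hours and stained for 1 hour at 4 °C with 10% biotinylated, detergent-solubilized Sf9 membrane reagent. Cells were enriched on streptavidin microbeads and then FACS-sorted, with low and high (top ~1%) gates set on anti-HA fluorescence for expression and streptavidin fluorescence for reagent binding. Each polyreactivity label reflects the gate a clone came from. Genes were amplified by colony PCR, sequenced by MiSeq 2 × 250 and filtered by CDR length.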

Row | Sequence | polyreactivity (PSR sort gate)
1 | QVQLVESGGCLVQAGGSLRLSCAASGSTFKRYAMGWYRQAPGKVGELVAAISKSGGSTYYADSVKGRFTISRDNAKNTDYLQMNCLNAEDTAVYYCAAGRSIGALYYGMDYWGEGTQVTVSS | high polyreactivity
2 | QVQLVESGGGLVQAGGSLRLSCAASGRTFYFYAMGWYRQAPGKERELVAAISWTGGITYYADSVKGRFTISRDNAKNTVYLQMNSLKPEDTAVYYCAAGYYYKVYWGQGTQVTVSS | low polyreactivity
3 | QVQLVESGGGLVQAGGRLRLSCAASGSNFYENAMVWYRQAPGKERELVADITNSGGSTYYADSVKGRFTISRDNAKNTVYLQMNSLIPEDTAVFYFATDVGYFYTVVGGYDYWGQGTQVTVSS | low polyreactivity
4 | QVQLVESGGGLVQAGGSLRLSCAASGSTLYYYAMGWYRQAPGKERELVATITNGGSTNYADSVKGRFTISRYNAKNTVYLQMNSLKPEDTAVYYCNARRGYWGSNYWGEGTQVTVSS | high polyreactivity
5 | QVQHVESGGGLVQAGGSLSLRCAASGSTLPYYAMGGYRPAPGKEREFVAAISSSGGSTYYADSVKGRFTISRDNAKYTVYLQMNSLKPEDTAVYYCNAVLYARQRDRWARYDYWGQGTQVTVSS | high polyreactivity
6 | QVQLVESGGGLVQAGSSLRLSCAASGRTLIYNAMGWYRQAPGKERELVASINRRGDSTYYADSVKGRFTISRDNAKNTVYLQMNSLKPEDTAVYYCAKVLYGGYPENRYFVGWGRDYWGQGTQVTVSS | high polyreactivity
7 | QVQLVESGGGLVQAGGSLRLSCAASGSIFRYYAMGLYRQAPGKERVLVAAFSGSGGITLYADSVKVRFSISRDNAKNTVYLQMNCLKPEDTAVYFCATRPGTRPAYDYWGQGTQVTVSS | high polyreactivity
8 | QVQLVESGGGLVQARGSLRLSCAASGSTLRRYAMGWYRQAPGKERELVAAISSSGGSTYYADSVKGRFTISRDNAKNTVYLQMNSLKPEDTAVYYCAALVRKRVNTYQGYYPGDYWGQGTQGTVSS | high polyreactivity
9 | QVQLVESGGGLVQAGGSLRLSCAASGIIYSINAMGWYRQAPGKERELVAAISRSGGSTNYADSVKGRFTISRDNAKNTVYLQMNSLKPEDSAVYYCATVHRYSVWSHNYWGQGTQVTVSS | high polyreactivity
10 | QVQLVESGVGLVKAGGTLRLSCAASGGIFDYNAMGWYRQAPGKERELVAYYADSVKGRFTLSRDNAKNTVYLQMNSLKPEDTAVYYCAVDGGEFSSYGYWGQGTQVTVSS | low polyreactivity
11 | QVQLEDSGGGLVQAGGSLRLSCAASGRIFYTYAMGWYRQAPGKERELVAAINRSGSSTYYADSVKGRFTISRDNAKNNVYLQMNSLKPEDTAVYYCNAQSYLYYGWVLTDVDYWGQGTQVTVSS | low polyreactivity
12 | QVQLVESGGGLVQAGGSLRLSCAASGIFDYYGMGWYRQAPGKERELVAAITWNGGSTYYADSVKGRLTISRDNAKNTVYVQMNSLKPEDTAVYYCATTDWYHSPGYDYRGQGTQVTVSS | low polyreactivity
13 | QVQLVESGGGLFQAGGSLRLSCAASGFIFYDNAIGWYRQAPGKERELVASISVSGGSTYYADSVKGRFTISRDKAKNTVYLHMNSLKAEDTAVYYCAASYRDGHIRHDYWGQGTQVTVSS | low polyreactivity
14 | QVQLVESGGGLVQAVGSLRLSCAASGNIFHRNAMGWYRQAPGKEMELVAAISWSGGSTYYADSVKGRFTISRDNAKNTVYLQMNSLKPEDTAVYFCNAYYYYRFKPSHPGLRSYYWGQGTQVTVSS | high polyreactivity
15 | QVQLVESGGGLVQAGGSLRLSCAASGFIFAKYAMGWYRQAPGKERALGAAITSGGSTNYADSVKGRFTISRDNAKNTLYLQMNSLNPEDTAVYSCNRGFDWCYRYRHYDYWGQGTQVTVSS | low polyreactivity
16 | QVQLVESGGGLVQAGGSLRLSCAASGRIFYGYTMGWYRQAPGKERELVAAITWSGGSTHYADSVKGRFTISRDNAKNTVYLQMNSLKPEDTAVYYCNARRRSVYRGLYDYWGQGTQVTVSS | high polyreactivity
17 | QVQLVESGGGLVQAGGSLRLSCADSGLILHKYAMGWYRQAPGKDRELVASINSGANTNYADSVKGRFTISRDNAKNTVYLQMNSLKPEDSAEYYCNADPGFRSGEYGYSSFDYWGQGTQVTVSS | low polyreactivity
18 | QVQLVESGGGLVQAGGSLRLSCAASGRLFSRNVMGWSRQAPGKERELVAAISSSGSTYADSVKGRFTISRDNEKNTVYLQMNSLKPEDTAVSYCAAVIYLWGQGTQVTVSS | high polyreactivity
19 | QVQLVESWGGLVQAGGSLRLSCAASGSIFYTNVMGWYRQAPGKERELVARIDSGGSTNYADSVKGRFTISRDNAKNTVYLQMNSLKPEDTAVYYCAADWYIYDYWGQGTQVTVSS | low polyreactivity
20 | QVQLVESGGGLVQAGGSLRLSCAASGSIFAHYAMGWYRQAPGKERELVARISWSGGSTYYADSVKGRFTISRDNEKNTVYLQKNSMKPEDTAVYYCARAGRSWDTLYKYYLEHDYWGQGTQVTVSS | low polyreactivity
21 | QVQLVESGGGLVQAGGRLRLSCAASGFTFKRNAMGWYRQAPGKERELVAAITWSGGSTYYADSVKGRFTISRDNAKNTVYLQMNSLKPEDTAVYYCAALYRSRYYAGDYLGQGTQVTVSS | high polyreactivity
22 | QVQRVESGGGLVQAGGILSLSCAASGSIFPWYAMGWYIQAPANERELVAAITISGGSTHYADSVKGRFTISRDNAKNSVYLEMNSLIPEDTAVYYCSTPRYPSYEYWGLGTQVTVSS | low polyreactivity

Row | Sequence | polyreactivity (PSR sort gate)
23 | QGHLVESGGGLVQAGGSLRLSCAASGITLTRYAMGWYRQAPWKERELVAAISTGGGSTYYADSVKGRFTFSRDNAKNTVYLQMNSLKPEDTAVYYCAARIRFARGYPITRTYDYWGQGTQVTVSS | high polyreactivity
24 | QVQLVESGGGLVQAGGSLRLSCAASGSIFGGYAMGWYRQAPGKERELVAAISGSGGSTYYADSVKGRFTISRDNAKNTVYLQMNSLKPEDTAVYYCAADSNKYGYEYDYWGQGTQVTVSS | low polyreactivity
25 | QVQLEESGGGFVQAGGSLRLSCAASGYIFFPHAMGWYRQATWKERELVAAINSRGASTYYADSVKGRFTISRDNAKNTVSLQMNSLKPVDTAVYYCAKGSGLHIYHYYGVPYDYWGQGTQVTVSS | low polyreactivity
26 | QVKLHESGGGLVQAGDSQRLSCAASGNIFRFTDMGWSRQAPRKERELVAAINAGSTTYYADSVKGRFTISRDNAKNTVYLQKNSLKPEDTAVYYWAVYYLGSGTFGYWGQGAQVTVSS | high polyreactivity
27 | QVQLVESGGGLVQAGGSLRLSSAASGSIFYQYAMGWYRQAPGKERQLVAAISRSGGSTYYAESVKGRFTISRDNAKNTVYLQMNSLIPEDTAVYYCATDIYSRWAGYKRSQYDYWGQGTQVTVSS | high polyreactivity
28 | QVQLVESGGGLVQAGGSLRLSCAASGRIFYRNAMGWYRQAPGKERELVAAISKSGGSTYYADSVKGRFTISRDNAKNTVYLQMNSLKPEDTAVYYCNARPGQSGARFGYWGQGTQVTVSS | high polyreactivity
29 | QVQLVESGGGLVQAGSSLRLSSAASGSIIGVNAKGRYRQAAGKERELVAAISSTGGSTYYADSVKGRYTISRDNAKNTVFLKMNSLKPDDTAVYYCNTDYSKSIGDGYSGFDYWGQGTQLTVSS | low polyreactivity
30 | QVQLVESGGGLVQAGGSLRLSCAASGIYINAMGWYRQAPGKERELVAAISRGGSTYYADSVKGRFTISRDNAKNTVYLQMNSLKPEDTAVYYCAKLIGRWRLYHTFVKGDYWGQGTQVTVSS | high polyreactivity
31 | QGQLVESGGGLVQAGGSLRLTCSASGSTFDSYGMGWYRQAPGKERELVASISSRGGSTYYADSVKGRFTISRDTAKNTVYLQMNSLKPEDTAVYYCAADWLSWFHGYGMYYWGQGTQVTVSS | low polyreactivity
32 | QVQLVESGGGLVQAGGSLRLSCAASGSTFYGNAMGWYRQAPGKERELVAAIRWRGGRTYYADSVKGRFTISRDNAKNTVYLQMNSLKPEDTAVYYCNALPGVSHTQYDRVGYWGQGTQVTVSS | high polyreactivity
33 | QVQLVESGGRLVQAGGSLRLSCAASGFTFPVYAMGWYRQAPGKERELVAVIRLTGGRTYYADSVKGRFTISRDNAKNTVYLQMNSLKPVDTAVYYCAAGSRSGYGYWGQGTQVTVSS | high polyreactivity
34 | QVHLVESGGGLVQAGGSLRLSSAASGSTFDYYAMGWYRQAPGKERELVAAISVGGGGTTYADSVKGRFTISRDNAKNTVYFQMNCLNPEDTAVYYCAARYRTRKRPGSKYYYWGQGTQVTVSS | high polyreactivity
35 | QVQLVESGGGIVQAGGSLRLSCAASGRIFPYYDMGWYRQAPGKERELVAAITSSGSTFYADSVKGRFTISRDNAKNTVYLQMNSLKPEDTAVYYCNTRDIRVRPYDYWGQGTQVTVSS | low polyreactivity
36 | QVQLVESGGGLVQAGGSLRLSCAASGITFVRNAMGWYRQAPGKERELVAAITSRGGITYYADSVKGRFTISRDNAKNTVYLQMNSLKPEDTAVYYCNKTRGYAVNGYNYWGQGTQVTVSS | high polyreactivity
37 | QVQLVESGGGLVQAGGSLRLSCAASGSTYPYAMGWYRPAPGKERELVAAITWSGGNTYYADSVKGRFTISRDNAKNTVYLQMNSLKPEDTAVYYCAKSRYATQTDYNYWGQGTQVTVSS | high polyreactivity
38 | QVQIVESGGGLVQAGGSLRLSCDASGSIFGRNAMGWYRQAPGKERELVAAITRTGGRTYYPDSVKGRITISRDNAKNTVYLQMNSLKPEDTEVKYCARYGGYWSLKYDYWGQGTQVTVSS | high polyreactivity
39 | QVQHVESGGGLVQAGGSLRLSCPASGSIIYYNTMGWYRQAPGKERELVAGISWGGGRTYYADSVKGRFTISRDNAKNTVYLQMNSLKPEDTAVYYCNAVSKYDYGYWGQGTQVTVSS | high polyreactivity
40 | QVQLVESGGGLVQAGGSLRLSCAASGRIFRVYAMGWYRQAPGKERELVAAISSYGGSTYYADSVKGRFTISRDNAKNTVYLQMNSLIPEDTAVYYCAAESSPDGYFLSDYWGQGTQVTVSS | low polyreactivity
41 | QVQLVESGGGLVQAGGSLRLSCAASGSTFRIYAMGWYRQAPGKERELVAAIRRRGASTYYADSVKGRFTISRDNAKNTVYLQMISLKPEDTAVYYCAASYFWDRVPGRGIHDYWGQGTQVTVSS | high polyreactivity
42 | QVQLVESGGGLVQAGGSLLLSCAASGLIFSGYAMGWYRQAPGKERELVAAISRTVGTTYYADSVKGRFTISRDNGKNPVYLQMNSLKPEDTAVYYCAARGRATLYDYWGQGTQVTVSS | high polyreactivity
43 | QVQLVESGGGLVQAGGSLRLSCAASGNIFGWYAMGWYRKAPGKERELVAAISSGGRTNYADSVKGRFTISRDYAKNTVYLQMNSLKPEDTAVYYCNKVAGVTGRYYYWGQGTQVTVSS | low polyreactivity
